Measured values from a protein production outcome set (Wang et al. 2014).

Assay: label from the status in PepcDB records

Sequence | protein production
MSEKFDCHYCRDPLQGKKYVQKDGRHCCLKCFDKFCANTCVDCRKPISADAKEVHYKNRYWHDNCFRCAKCLHPLASETFVSKDGKILCNKCATREDSPRCKGCFKAIVAGDQNVEYKGTVWHKDCFTCSNCKQVIGTGSFFPKGEDFYCVTCHETKFAKHCVKCNKAITSGGITYQDQPWHAECFVCVTCSKKLAGQRFTAVEDQYYCVDCYKNFVAKKCAGCKNPITGKRTVSRVSHPVSKARKSPVCHGKRLPLTLFPSANLRGRHPGGERTCPSWVVVLYRKNRSLAAPRGPGLVKAPVWWPMKDNPGTTTASTAKNAP | failed
MSEKLQKVLARAGHGSRREIESIIEAGRVSVDGKIAKLGDRVEVTPGLKIRIDGHLISVRESAEQICRVLAYYKPEGELCTRNDPEGRPTVFDRLPKLRGARWIAVGRLDVNTCGLLLFTTDGELANRLMHPSREVEREYAVRVFGQVDDAKLRDLSRGVQLEDGPAAFKTIKFSGGEGINQWYNVTLTEGRNREVRRLWEAVGVQVSRLIRVRYGDIPLPKGLPRGGWTELDLAQTNYLRELVELPPETSSKVAVEKDRRRMKANQIRRAVKRHSQVSGGRRSGGRNNNG | not failed
MSEKREKQTKSKRRIWRGVTTATASLLTLSMSATLVIDGFRTDIDKFLGTQSTKMVTEDVSAEDYTFQSDYSSTTELLDSIEDLGERMNEEGSVLLKNENAALPLSKEETQKISLLGFSSYYPVQGGDFGSTLSENKGTDADTVDMLEAFESKGFEMNPTLKKMYQGLKEEFKSEAVLPWGVTTYYRATAPATTGVFTSLEPETATLDEAEPNWKKSMTDYNVMIVTLARAAGENANYTPGEDGVNPEQDLNQADPLGLSDTERAIIDEAVNAKKENNGKLIVMLNNASAMEIEEIKNNTGVDAILEVGLPGGYGFYGVADVLSGEVNPSGHLADTYAVDNSSSPAAQNYGNYEWTNADSAYSINSEIVEAEGIYTGYKYYETRYADTVLGQGNASDKTGSSNGKAWNYEDEVSYPFGYGLSYTTFSQTLDSLDVNLEDKTVTAKVTVKNTGDVAGKDVVQLYTSLPYTEYDKEHAVEKAAVQLLDYEKTGVLQPGESVTVEITADAQDMASWDSTCDNAAGTKGNWILDAGDYYFTVGNGSHEAVNNVLAAQGMTKANGMTDAGNAANVKKWTLDTFDSETFAYSKNGTAVENQLQDMDLNYYMPDTVTYLSRSDWKATWPKTYKDLTATDEMIEVMKNNLVEIKEQGNPDEVTFGEDNGLTLASLKGETDLTNEKWTDLIDQITLEEAMIRTGFGGTSTKSIVSIVSPEAVQNDGPNGFNSYTLGQYANTDTDSADPYVIDPDDKNLNYKFGTMSNETVIAQTFSKEMAAEYGAVTGNYSIWSNLPILWGAGTNLHRTPYNARNHEYYSEDAILTAYQAAAYIAAGKEYGCIIAPKHFAFNDTEINRSGIATFMTEQKARENELRGTQASVEDAQTLGMMTTFNRIGCTAGNAHYGLLMNILRKEWGFQGLMSEDFIQDANYSVLKEAVHCGVTMTCNTGDSNMEAVTAKWNYWTTEAVSKDASMMQDLKNVMMWQNYALANSNAMDGLNETSQIKDVRTWYDNALTATSAVLALLTLAAAAMYIRDAKRRKNS | failed
MSELAASLLSRVILPRPGEPLDVRKLYLEESTTNARRAHAPTRTSLQIGAESEVSFATYFNAFPASYWRRWTTCKSVVLRVQVTGAGRVDVYRTKATGARIFVEGHDFTGTEDQPAAVETEVVLQPFEDGGWVWFDITTDTAVTLHSGGWYATSPAPGTANIAVGIPTFNRPADCVNALRELTADPLVDQVIGAVIVPDQGERKVRDHPDFPAAAARLGSRLSIHDQPNLGGSGGYSRVMYEALKNTDCQQILFMDDDIRLEPDSILRVLAMHRFAKAPMLVGGQMLNLQEPSHLHIMGEVVDRSIFMWTAAPHAEYDHDFAEYPLNDNNSRSKLLHRRIDVDYNGWWTCMIPRQVAEELGQPLPLFIKWDDADYGLRAAEHGYPTVTLPGAAIWHMAWSDKDDAIDWQAYFHLRNRLVVAAMHWDGPKAQVIGLVRSHLKATLKHLACLEYSTVAIQNKAIDDFLAGPEHIFSILESALPQVHRIRKSYPDAVVLPAASELPPPLHKNKAMKPPVNPLVIGYRLARGIMHNLTAANPQHHRRPEFNVPTQDARWFLLCTVDGATVTTADGCGVVYRQRDRAKMFALLWQSLRRQRQLLKRFEEMRRIYRDALPTLSSKQKWETALLPAANQEPEHG | failed
MSELILHHYPTSLFAEKARLMLGFKGVNWRSVTIPSIMPKPDLTALTGGYRKTPVLQIGADIYCDTALMARRLEQEKASPAFYPQGQEFAVAGLAAWADSVLFLHAVSLVFQPESMAVRFAKVPPDAAKAFIADRSMLFNGGTASRPPVEQVKHQWPTFMSRLESQLSHGGDFLFGAPSIADFSVAHTLWFLKQTPVTAPFVDDYPSVSVWLDRVLGFGHGSLSDLSSAAAIEIASNATPAPLPDETFIDPNGFKAGDKVAIAAVDYGVEAVEGELMFTGREELILRREDNRAGVVHVHFPRLGFRVEKR | not failed
MSELSTEAPAQSAKPTIYFDGVSSRRRQVTLTLGDALEIVEEGATPVRWAYADIRRADSPAGILRLASTFAPPLARLEIRDTALAADVSVRCMRLDEHQTTRRGIAKIVGWSVAAAVSIVCVVLFGVPLAADRLAPLVPKPIERRIGDASEVQVKTIFGGRTCEDPAGKAAFTKLVNRLRDAAGLDDDSMTAGVLPTSVPNAFALPGGKVFLLQGLLDRAESPDELAGILAHELGHLKHHDNMRGLIYNGGTSFLIGLLFGDVTGSSAVIFASRSVVEASYSREAETGADTFAIDIMHALGRSPRPSAELMFRITGKEGGSGFTILSSHPLTEDRLARMTKEDRPVSGPPLLTDAEWRALKGICGSGKI | failed
MSELVRKLSGTAPNPAFPRGAVDTQMHMYLPGYPALPGGPGLPPGALPGPEDYRRLMQWLGIDRVIITQGNAHQRDNGNTLACVAEMGEAAHAVVIIDATTTEKDMEKLTAAGTVGARIMDLPGGAVNLSELDAVDERAHAADWMVAVQFDGNGLLDHLPRLQKIRSRWVFDHHGKFFKGIRTDGPEMAALLKLIDRGNLWFKFAGVYESSRKSWPYADVAAFSRVIAAHAPERIVWGTNWPHNSVRETAAYPDDARLAELTLGWLPDEAARHRALVENPEALFKLSPVKAT | failed
MSENLAITIATIVVKLFAIIDPFSVLPFLLAIYEEANRDSQEKVSWNYMINKITIAILILLTLFSLIGRPLLDFLGLSAQALQIAGGVLLVYLGIDTMGGFQQLRFIRSLREAIVTPIATPLLVGPGTMTALISLSVDYNPLELVISSGIVTLLVYLSLLSGPYLVKILGQTGTVAAGRFTAIIIAAFGVQLILSGISQLNFK | failed
MSEPLHALARQLEQAIRASEPFQQLKRAYEDVRRDETAYRMFANVRDIQLRLHEKQMRGAAILPDEIEQAQKAMALAQQNEKLARLMALEQQMSITIAEVQQIAMKPLEELHRSFMEGR | not failed
MSEPLLHLTERSLWDAARDRGTYEMATRGRTLQEEGFIHCSLRHQLPGVAALLYGSRAGSDELVVLVVDAERLAAPVRYEAVGPGGEEFPHVYGPIPVSAVVDVEVWTGGEAASALEHHHHHH | not failed
MSEPVIKSLLDTDMYKITMHAAVFTNFPDVTVTYKYTNRSSQLTFNKEAINWLKEQFSYLGNLRFTEEEIEYLKQEIPYLPSAYIKYISSSNYKLHPEEQISFTSEEIEGKPTHYKLKILVSGSWKDTILYEIPLLSLISEAYFKFVDIDWDYENQLEQAEKKAETLFDNGIRFSEFGTRRRRSLKAQDLIMQGIMKAVNGNPDRNKSLLLGTSNILFAKKYGVKPIGTVAHEWVMGVASISEDYLHANKNAMDCWINTFGAKNAGLALTDTFGTDDFLKSFRPPYSDAYVGVRQDSGDPVEYTKKISHHYHDVLKLPKFSKIICYSDSLNVEKAITYSHAAKENGMLATFGIGTNFTNDFRKKSEPQVKSEPLNIVIKLLEVNGNHAIKISDNLGKNMGDPATVKRVKEELGYTERSWSGDNEAHRWTZ | not failed
MSEQQHVRADGTVTFLPHRLNRHPVVVRGLTADELWICCGLSGAAGLLVGAPLSWVFRTIAIAPTFVVLGVALGVFIGGGILRRLKRGRPDTWLYRQLQWRIATGHPLMAGWVGGHVLISRSGFWSTRRSMR | failed
MSERRDAILKASATAIAQRGIRGLRVNDVAEVAGVSPGLLYYHFKDRIGLLEAALNYINDRARAYRSEGEGSGDSARDRLTRSLLGEIQDRPEVVENSLAWNELRASAVYEEALRDPLARTTAAWVSEIADAIVQAQATGEISRSLDPQPTAVTMTALVEGLSGRWLCKEISTEDARSHLLGAIDVVMSEPTHHTADTPVTPTPKEYR | not failed
MSERVSEEPGLDKGDRAEECELDDPELKAIRMRVREMEEEAERLKGLSGQDKSIGVSTRPCMQTTHSKMTAGAYTEGPPQPLSAEEKKEIDKRSVYVGNVDYGSTAQDLEAHFSSCGSINRITILCDKFSGHPKGYAYIEFAERNSVDAAVAMDETVFRGRTIKVLPKRTNMPGISSTDRGGFRGRPRGNRGNYQRGQRPRGRPFRGRGRPGPLNNPY | not failed
MSESNRQRATGLVQAYYEAFNRGDWDAMLAFLAEDVAHDLNQGPREIGRAAFASFLQRMNDSYREQLRDIVVTANDEGTRVGAEYVVHGVYHTTDEGLPDANGQTYVLPGGAFFDVRDGQITRVTNYYNLQEWIAQVSR | not failed
MSESTAPSDTVLLRGGEVHSPADPFATAMVVERGQVAWVGSEGAADAFSAGVDEVVDLEGALVTPAFTDAHVHTTSTGLALTGLDLSGAPSLEAALALVRDFAAARPDDRVLLGHGWDTARWPGGRPPTRAELDEAADGRPLYLSRIDVHSAVVSTALLDLVPGITGRAGYLDGPLTRDAHHAVRGAALGAVSPAQRTEAQRAALAHAASLGIGSVHECAGPEISSEDDFTGLLRLAAEETGPRVVGYWAEWGEEGIDRARALGAVGAAGDLFVDGALGSHTACLHQPYSDAGHTGTAYLDDDAVAAHVIACTEAGLQAGFHAIGDAAVTSVVEGVRAAAEKVGLARVRAARHRVEHAEMLTPETIAAFAELGLTASVQPAFDALWGGADGMYAQRLGAERARTLNPFAALLRAGVPLAFGSDSPVTPLDPWGTVRAAAFHRTPEHRVSVRAAFTAHTRGGWRAIGRDDAGVLVPGAPADYAVWRTEELVVQAPDDRVARWSTDPRSGTPGLPDLTPGGDLPVCLRTVVGGRTVFVRPNE | failed
MSETDTAWIETALTSARPQAVGALLRYFRDLDTAEEAFQNACLRALKTWPQNGPPRDPAAWLIMVGRNVAIDEVRRARKQQPLPEDDQAISDLDDAEGALAERLDGSHYRDDILRLMFICCHPQLPATQQIALALRIVSGLTVKQIARAFLVSEAAMEQRITRAKAKVAEAGTPFETPGPIERSERLAGVAAMIYLIFNEGYSASGDTAEIRKPLCEEAIRLARLLLRLFQSEPEIMGLAALLLLQHARSAARFADDGSLILLEDQDRSLWNGSMIAEGLALIDKAMRHRRSGPYQIQAAIAALHARAATPEETDWAQIDLLYGALELAQPSPVVTLNRAVAVSKVRGPQAALDLIEPLAPKLGNYFHFHGVRGAFLMQLGRNDEARIAFDRAIALANTSAEAAHIRMHIDRLIRDSQPKSSNGSARQGAKAK | failed
MSEVHTTIIDLDAGAVFSGTPSGRIIKGFDKPCAHTPNIDPDYVFHECSRDIVVWLMDSSDPLYVFGPTGSGKTSAIKQLAARLNYPVFDVTGHGRLEFPDLVGHLSVRDGSMEFQYGPLALAMRHGGILLLNEIDLLEPATATGFNGILDGEPLCIPENGGEIITPHPMFRFAATANTNGGSDDTGLYQGTLRQNLAFLDRFWLCEMPYPAPEAEKALLERRAPMLPDDIRTRMVDYANEVRRLFMGESGTTYGHSIEVTFSTRTLLRWADLTVRFQPLARQGIQPLTYALDRALGFKASKDTRTTLHELAQRLFPQHAATGE | failed
